The source of these data is patent US20260227403A1 (HENRY M JACKSON FOUNDATION FOR THE ADVANCEMENT OF MILITARY …, published 2026).

The target of the test is T1, ERG3 (pCMV-ERG3 plasmid, Exons 5-16, NM_001136154) (UniProt P11308-3 40-486).
T1 construct: Expressed in HEK-293 cells and tested as cell lysate on an immunoblot; also called ETS Transcription Factor ERG
T1 sequence (looked up): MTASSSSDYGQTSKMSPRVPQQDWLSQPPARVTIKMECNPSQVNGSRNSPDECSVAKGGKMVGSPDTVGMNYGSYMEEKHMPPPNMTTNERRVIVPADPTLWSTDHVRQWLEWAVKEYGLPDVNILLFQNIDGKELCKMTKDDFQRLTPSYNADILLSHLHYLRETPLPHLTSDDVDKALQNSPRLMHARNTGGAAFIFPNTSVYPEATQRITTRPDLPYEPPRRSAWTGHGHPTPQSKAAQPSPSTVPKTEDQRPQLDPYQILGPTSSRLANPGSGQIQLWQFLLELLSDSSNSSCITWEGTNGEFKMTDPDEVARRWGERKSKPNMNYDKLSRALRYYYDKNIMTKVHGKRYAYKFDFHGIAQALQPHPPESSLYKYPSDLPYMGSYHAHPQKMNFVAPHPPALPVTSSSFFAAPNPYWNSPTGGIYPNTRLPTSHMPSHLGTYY
The test is described as follows: immunoblot of cell lysates (HEK-293 2 µg per lane) probed with 29E4; the protein is shown present in panel C. Here is the method: Immunoblots using antibodies against ETV1 (A and H), ETV4 (B), ERG (C), SPDEF (D), FLI1 (E), FLAG (F), and GAPDH (G), as a loading control. […] PC3 cells were transfected with 25 nM non-targeting (NT) siRNA or ETV-1 siRNA oligos (lanes 1 and 2, respectively). […] were infected with either a control vector (lane 10) or adenoviral vector expressing FLI1 (lanes 11).
Cell lysates were then cleared by centrifugation at 10,000×g for 15 minutes at 4° C. and transferred to fresh tubes. Protein concentration was measured using Protein Assay Reagent (Bio-Rad, Hercules, CA). […] Separated proteins were transferred onto PVDF membranes using a Trans-Blot SD semi-dry transfer cell (BioRad) at 25 V for 90 minutes. Membranes were blocked in blocking buffer (Tris buffered saline with 0.25% Tween 20 (TBST) containing 1% BSA) for one hour at room temperature before incubation with primary antibodies (1 ng/mL) for 12 hours at 4° C. Membranes were then washed with wash buffer (TBST) in three ten-minute washes before treatment with IRDye 680RD conjugated goat anti-rabbit or IRDye 800 RD conjugated goat anti-mouse secondary antibodies (LI-COR Biosciences, Lincoln, NE) for three hours at room temperature.
(In general: In western blotting, separated proteins are transferred to a membrane and probed.)

B1: ETV1 rabbit monoclonal antibody (29E4) (antibody, V domains shown)
VH: QELEESGGDLVKPGASLTLTCTASGFFFSAENHICWVRQAPGKGLEWIGCVYIGSYVGGSGDPYYASWAKGRFTISKTSSTTVTLQMSSLTAADTATYFCARDLGSLWGPGTLVTVSS
VL: DVVMTQTASSVSAAVGGTVTIACQSSQSVYDNNNLAWFQQKPGQPPKRLIYSASTLASGVSSRFKGSGYGTQFTLTISDVQCDDAATYYCVGAFSGYIFVFGGGTEVVVK
notes: constant regions are not; also called 29E4 mAb; ETV1 29E4 mAb
Regarding B1, the binding result is recorded as “no binding”.
